Laboratory results published in patent US20050037394, “Method for in vitro selection of 2'-substituted nucleic acids” (published 2005).

Experiments:
VEGF [1] = molecular target: T1, VEGF (UniProt P15692-4 P15692-4:27-191); test: filter; dot-blot in PBS; conditions: chain copies: 2
Experimental: (§1) Binding assays were performed with trace ³²P-body-labelled transcripts that were incubated with various protein concentrations in silanized wells, these were then passed through a sandwich of a nitrocellulose membrane over a nylon membrane. Protein-bound RNA is visualized on the NC membrane, unbound RNA on the nylon membrane. The proportion binding is then used to calculate affinity (see FIGS. 4, 5, and 6). The nomenclature “mGXG” indicates a substitution of 2′-OH G for 2′-OMe G at position “X”, as numbered sequentially from the 5′-terminus. Thus, mG7G ARC224 is ARC224 with a 2′-OH at position 7. ARC225 is ARC224 with 2′-OMe to 2′-OH substitutions at positions 7, 10, 14, 16, 19, 22 and 24. All constructs (initially identified by SELEX™) were generated by solid-phase chemical synthesis.

IFN-gamma [2] = molecular target: T2, IFN-gamma (Homo sapiens, UniProt P01579 P01579:24-161); test: inhibition; ELISA day 2; text assigns ARC872 to E3 but printed sequence matches F3; conditions: tags: R&D Systems, Minneapolis; chain copies: 2; putative G4
T2 sequence (P01579 24-161, one chain of several): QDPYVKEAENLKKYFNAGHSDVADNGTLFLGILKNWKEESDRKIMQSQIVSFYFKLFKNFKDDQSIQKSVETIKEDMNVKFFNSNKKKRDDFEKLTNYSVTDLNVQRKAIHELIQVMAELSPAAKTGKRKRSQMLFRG
Experimental: (§2) IFN-γ ELISA: The following ELISA method was used to measure the ability of IFN-γ aptamers to inhibit hIFN-γ from binding to the IFNγ-R1 receptor. To capture the IFNγ-R1, 175 ng of IFNγ-R1 (R&D systems, Minneapolis, Minn.) in 100 μl of PBS (pH 7.4) was incubated in each well of a Nunc Maxisorb plate (Nunc, Rochester, N.Y.) for 2 hours at room temperature. The solution was discarded and the plate was washed 3 times with 200 μl of TBS-T (25 mM Tris-HCl pH 7.5, 150 mM NaCl and 0.01% Tween −20). The plate was then blocked with 200 μl of 5% nonfat dry milk in TBS-T for 30 minutes at room temperature. After blocking, the plate was washed 3 times with 200 μl of TBS-T. Then, 100 μl of various concentrations of aptamers mixed with 5 nmoles of IFN-γ (R & D Systems) were incubated in appropriate wells for 1.5 hours at room temperature. […] Subsequently, 100 μl of 2 N H₂SO₄ was added to stop the reaction and the plate was read in a SpectraMax 96 well plate reader at […].
(§3) IFNγ-R1 Binding Inhibition with hIFN-γ Aptamers: Five full length and 2 minimized aptamers to IFN-γ were tested for receptor binding inhibition activity using the ELISA method described above. […] IC₅₀'s for the duplicate assays were calculated and are shown in Table 22 below along with Kd values for each of the respective aptamers.

VEGF [3] = molecular target: T1, VEGF; test: competition; 125I-VEGF binding to HUVEC; conditions: chain copies: 2
From the text: FIG. 5 is a plot of ARC224 and ARC225 binding to VEGF. […] The supernatant was removed, the cells were washed, and bound VEGF was counted in a scintillation counter. ARC225 has the same sequence as ARC224 and 2′-OMe to 2′-OH substitutions at positions 7, 10, 14, 16, 19, 22 and 24 numbered from the 5′-terminus.

IFN-gamma [4] = molecular target: T2, IFN-gamma; test: filter; 1x DPBS, 0.1 mg/ml BSA; Table 21 gives 167.31; conditions: tags: R&D Systems, Minneapolis; chain copies: 2; label: 5'-32P
IFN-gamma [5] = molecular target: T2, IFN-gamma; test: inhibition; IFN-gamma/IFN-gamma-R1 ELISA day 1; day 2 70 nM; conditions: tags: R&D Systems, Minneapolis; chain copies: 2; label: 5'-32P
Experimental: as §2, §3

IFN-gamma [6] = molecular target: T2, IFN-gamma; test: inhibition; ELISA day 2; text assigns ARC873 to F3 but printed sequence matches E3; conditions: tags: R&D Systems, Minneapolis; chain copies: 2; putative G4
Experimental: as §2, §3

IFN-gamma [7] = molecular target: T2, IFN-gamma; test: inhibition; IFN-gamma/IFN-gamma-R1 ELISA day 1; day 2 270 nM; conditions: tags: R&D Systems, Minneapolis; chain copies: 2; label: 5'-32P
Experimental: as §2, §3

IFN-gamma [8] = molecular target: T2, IFN-gamma; test: filter; 1x DPBS, 0.1 mg/ml BSA; Table 21 gives 169.28; conditions: tags: R&D Systems, Minneapolis; chain copies: 2; label: 5'-32P
[9] = molecular target: T3, Complement C5 full length (Homo sapiens, UniProt P01031;P01031 P01031:19-673,P01031:678-1676); test: filter; 1x DPBS, extent of binding 20%; conditions: tags: Quidel Corporation, San Diego
T3 sequence (P01031 19-673, chain 1 of 2): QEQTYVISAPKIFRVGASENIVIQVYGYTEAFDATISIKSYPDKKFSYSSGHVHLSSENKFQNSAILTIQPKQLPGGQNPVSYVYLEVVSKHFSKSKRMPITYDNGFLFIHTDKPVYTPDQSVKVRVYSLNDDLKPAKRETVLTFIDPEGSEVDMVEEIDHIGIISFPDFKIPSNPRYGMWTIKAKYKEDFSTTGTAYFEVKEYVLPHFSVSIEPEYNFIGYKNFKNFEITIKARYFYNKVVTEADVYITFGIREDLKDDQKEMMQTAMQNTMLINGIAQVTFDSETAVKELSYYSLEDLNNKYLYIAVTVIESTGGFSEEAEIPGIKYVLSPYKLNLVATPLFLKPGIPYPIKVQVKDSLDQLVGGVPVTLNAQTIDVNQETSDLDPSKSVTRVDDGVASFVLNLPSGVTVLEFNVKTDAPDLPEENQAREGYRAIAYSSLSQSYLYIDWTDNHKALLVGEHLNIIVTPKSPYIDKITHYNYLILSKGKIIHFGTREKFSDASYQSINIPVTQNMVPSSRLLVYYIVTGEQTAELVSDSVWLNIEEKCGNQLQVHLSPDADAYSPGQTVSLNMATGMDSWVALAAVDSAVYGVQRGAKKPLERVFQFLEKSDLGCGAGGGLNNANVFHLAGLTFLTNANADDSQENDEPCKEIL
T3 sequence (P01031 678-1676, chain 2 of 2): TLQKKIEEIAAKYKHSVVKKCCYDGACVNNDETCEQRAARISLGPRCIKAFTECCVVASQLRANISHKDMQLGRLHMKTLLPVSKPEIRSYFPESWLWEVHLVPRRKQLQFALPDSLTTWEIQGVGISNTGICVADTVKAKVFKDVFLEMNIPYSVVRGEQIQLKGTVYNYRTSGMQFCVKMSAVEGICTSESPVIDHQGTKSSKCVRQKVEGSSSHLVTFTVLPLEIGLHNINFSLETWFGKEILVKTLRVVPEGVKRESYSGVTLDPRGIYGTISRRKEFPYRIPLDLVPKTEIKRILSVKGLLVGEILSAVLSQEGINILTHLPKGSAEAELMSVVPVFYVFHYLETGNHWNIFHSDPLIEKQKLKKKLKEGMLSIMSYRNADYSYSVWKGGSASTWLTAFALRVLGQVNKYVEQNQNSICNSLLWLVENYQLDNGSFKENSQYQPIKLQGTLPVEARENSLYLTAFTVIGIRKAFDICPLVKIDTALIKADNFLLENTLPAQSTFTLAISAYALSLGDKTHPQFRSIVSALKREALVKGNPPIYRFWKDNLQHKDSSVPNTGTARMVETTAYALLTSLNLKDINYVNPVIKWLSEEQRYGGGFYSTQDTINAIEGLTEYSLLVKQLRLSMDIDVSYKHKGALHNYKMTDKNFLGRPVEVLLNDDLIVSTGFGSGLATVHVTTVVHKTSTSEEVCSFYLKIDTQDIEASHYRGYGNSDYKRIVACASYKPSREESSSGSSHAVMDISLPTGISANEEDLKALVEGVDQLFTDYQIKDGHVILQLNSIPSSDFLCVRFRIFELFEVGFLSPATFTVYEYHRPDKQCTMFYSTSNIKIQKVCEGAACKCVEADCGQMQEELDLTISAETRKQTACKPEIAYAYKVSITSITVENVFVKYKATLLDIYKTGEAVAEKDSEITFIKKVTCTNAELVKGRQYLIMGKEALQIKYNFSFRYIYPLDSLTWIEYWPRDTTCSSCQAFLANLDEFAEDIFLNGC

[10] = molecular target: T3, Complement C5 full length; test: inhibition; 0.2% human serum, sheep erythrocytes, GVB++, 25 C; conditions: tags: Quidel Corporation, San Diego
Experimental: Hemolysis Assay: The effect of the AMX221.E1 clone on the classical pathway of the complement system was analyzed using a hemolysis assay compared to both ARC186 (Anti-C5 aptamer, positive control) and unselected dRmY pool (negative control). In the assay of hemolytic inhibition, a solution of 0.2% whole human serum was mixed with antibody-coated sheep erythrocytes (Diamedix EZ Complement CH50 Test, Diamedix Corporation, Miami, Fla.) in the presence oftitrated AMX221.E1. The assay was run in veronal-buffered saline containing calcium, magnesium and 1% gelatin (GVB⁺⁺ complement buffer) and incubated for 1 hr at 25° C. After incubation the samples were centrifuged. The optical density at 415 nm (OD₄₁₅) of the supernatant was read. The inhibition of hemolysis activity is expressed as % hemolysis activity compared to control. The IC₅₀ of the clone was calculated to be about 30 nM.

IFN-gamma [11] = molecular target: T2, IFN-gamma; test: filter; 1x DPBS, 0.1 mg/ml BSA; Table 21 gives 227.87; conditions: tags: R&D Systems, Minneapolis; chain copies: 2; label: 5'-32P
IFN-gamma [12] = molecular target: T2, IFN-gamma; test: inhibition; IFN-gamma/IFN-gamma-R1 ELISA day 1; day 2 190 nM; conditions: tags: R&D Systems, Minneapolis; chain copies: 2; label: 5'-32P
Experimental: as §2, §3

VEGF [13] = molecular target: T1, VEGF; test: FP; placeholder corrected: dot-blot nitrocellulose/nylon filter in PBS; conditions: chain copies: 2
Experimental: as §1

IFN-gamma [14] = molecular target: T2, IFN-gamma; test: filter; 1x DPBS, 0.1 mg/ml BSA; Table 21 gives 206; conditions: tags: R&D Systems, Minneapolis; chain copies: 2; label: 5'-32P
IFN-gamma [15] = molecular target: T2, IFN-gamma; test: filter; 1x DPBS, 0.1 mg/ml BSA; Table 21 gives 97; conditions: tags: R&D Systems, Minneapolis; chain copies: 2; label: 5'-32P
IFN-gamma [16] = molecular target: T2, IFN-gamma; test: inhibition; IFN-gamma/IFN-gamma-R1 ELISA day 1; day 2 100 nM; conditions: tags: R&D Systems, Minneapolis; chain copies: 2; label: 5'-32P
Experimental: as §2, §3

T1 sequence (P15692 other isoform, or with tags, fused parts or gaps): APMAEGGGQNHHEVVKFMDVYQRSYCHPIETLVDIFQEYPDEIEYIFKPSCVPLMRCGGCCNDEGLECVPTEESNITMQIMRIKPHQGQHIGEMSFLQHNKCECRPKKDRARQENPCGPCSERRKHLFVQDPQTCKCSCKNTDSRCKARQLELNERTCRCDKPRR

B1: ARC245 (ssRNA)
RNA: AUGCAGUUUGAGAAGUCGCGCAU
modifications: 2'-OMe at all residues; 3'-inverted dT [2'-OMe at 1-23; 3'-inverted dT after nt 23 (not written in sequence)]
VEGF [1]
  Kd: 0.0021 µM

B2: ARC872 (mixed)
RNA: GGGCGGUUGGGGUCGGGGAGGAUGGUACAGGG
modifications: dRmY: deoxy A,G; 2'-OMe C,U
IFN-gamma [2]
  IC50: 0.2 µM

B3: ARC224 (ssRNA)
RNA: CGAUAUGCAGUUUGAGAAGUCGCGCAUUCG
modifications: 2'-OMe at all residues; 3'-inverted dT [2'-OMe at 1-30; 3'-inverted dT after nt 30 (not written in sequence)]
VEGF [1]
  Kd: 0.0039 µM
VEGF [3]
  IC50: ~0.002 µM

B4: ARC789 (AMX(192)_A5) (mixed)
DNA: GGGAGAGGAGAGAACGTTCTACGTTTGCGGTCAGGATGGGGTGGTGGGAGGTCGATCGATCGATCATCGATG
modifications: dRmY: deoxy A,G; 2'-OMe C,U (cDNA printed, T=U)
IFN-gamma [4]
  Kd: 0.15 µM
IFN-gamma [5]
  IC50: 0.04 µM

B5: ARC873 (mixed)
RNA: GGGUGGCUGGGGCAGGGGAGGUAGGUAGGG
modifications: dRmY: deoxy A,G; 2'-OMe C,U
IFN-gamma [6]
  IC50: 0.33 µM

B6: ARC820 (AMX(192)_D11) (mixed)
DNA: GGGAGAGGAGAGAACGTTCTACGGGGAGGAGGGTGGGGTAGCAGGTGTGGCAGGTCGATCGATCGATCATCGATG
modifications: dRmY: deoxy A,G; 2'-OMe C,U (cDNA printed, T=U)
IFN-gamma [7]
  IC50: 0.28 µM
IFN-gamma [8]
  Kd: 0.17 µM

B7: AMX221.E1 (mixed)
DNA: GGGAGAGGAGAGAACGTTCTACCTTGGTTTGGCACAGGCATACATACGCAGGGGTCGATCGATCGATCATCGATG
modifications: dRmY: deoxy A,G; 2'-OMe C,U (cDNA printed, T=U)
[9]
  Kd: ~0.14 µM
[10]
  IC50: ~0.03 µM

B8: ARC818 (AMX(192)_E3) (mixed)
DNA: GGGAGAGGAGAGAACGTTCTACGGGTGGCTGGGGCAGGGGAGGTAGGTAGGGTCGATCGATCGATCATCGATG
modifications: dRmY: deoxy A,G; 2'-OMe C,U (cDNA printed, T=U)
IFN-gamma [11]
  Kd: 0.18 µM
IFN-gamma [12]
  IC50: 0.22 µM

B9: ARC259 (ssRNA)
RNA: ACGCAGUUUGAGAAGUCGCGCGU
modifications: 2'-OMe at all residues; 3'-inverted dT [2'-OMe at 1-23; 3'-inverted dT after nt 23 (not written in sequence); base pair swap at 2 (U>C) and 22 (A>G)]
VEGF [13]
  Kd: 0.0014 µM

B10: ARC819 (AMX(192)_F3) (mixed)
DNA: GGGAGAGGAGAGAACGTTCTACGGGCGGTTGGGGTCGGGGAGGATGGTACAGGGTCGATCGATCGATCATCGATG
modifications: dRmY: deoxy A,G; 2'-OMe C,U (cDNA printed, T=U)
IFN-gamma [14]
  Kd: 0.18 µM

B11: ARC821 (AMX(216)_A7) (mixed)
DNA: GGGAGAGGAGAGAACGTTCTACGGGGGTCGTGGGAGTAAGGGGGTGTAGGTAGGTCGATCGATCGATCATCGATG
modifications: dRmY: deoxy A,G; 2'-OMe C,U (cDNA printed, T=U)
IFN-gamma [15]
  Kd: 0.14 µM
IFN-gamma [16]
  IC50: 0.13 µM
